Data on nine molecules can be found in patent publication US20150368616A1, “METHODS FOR INDUCTION OF CELL FATES FROM PLURIPOTENT CELLS” (THE CLEVELAND CLINIC FOUNDATION, priority 2013, published 2015).

Holding throughout (format): cell-based, human
For one data set, the system named is hES cultures. Briefly: Individual defined medium components added throughout stages 2 and 3 of a directed differentiation protocol, qRT-PCR and IHC. To be noted: for Pdx1 relative transcript level over hES levels / FoxA2 relative transcript level over hES levels: additive throughout stage 2 and stage 3; for Pdx1 relative transcript level over hES levels: control ~2500 fold; for FoxA2 relative transcript level over hES levels: control ~75 fold. The source says:
To assay the individual protein components within the cell conditioned medium defined by the microarray analysis, the individual components were included throughout stages 2 and 3 of a directed differentiation protocol. […] Panels B-G show immunohistochemical stainings for Pdx1 and Hnf1-beta for the control reaction (panel B, D and F) and the reaction performed with the addition of Hb-EGF (panels C, E and G).
Since we have seen that the Pan-CM induced differentiation of the pluripotent culture results in an increased presence of pancreatic progenitors within forward differentiating cultures we next assayed the individual components of the cell conditioned medium as single additives throughout stage 2 and stage 3 of a directed differentiation protocol. Stage 2 and stage 3 cultures were assayed since these are the stages which normally establish pancreatic endoderm within directed differentiation protocols. An outlined schematic of the components used throughout the directed differentiation is provided in FIG. 45 panel A. Three genes were assayed throughout this series of experiments: the endodermal gene FoxA2, the early pancreatic progenitor gene Pdx1 and the endocrine progenitor gene Nkx6.1. […] The most dramatic effect noted within the genes assayed throughout this series of experiments was observed within the Pdx1 transcript levels obtained within cultures that had either Hb-EGF or FGF10 included throughout stage 2 and stage 3.
While this series of experiments have successfully established a beneficial effect for the inclusion of a FGF ligand within throughout stages 2 and 3 of a directed differentiation protocol, it should be noted many directed differentiation protocols already currently include a either FGF10 or FGF7 within either stage 2, stage 3 or both. […] This effect may have been due to the high concentration of Activin A used within these reactions 100 ng/ml. This high concentration was chosen because it is the typical concentration used in generating endoderm during stage 1 of directed differentiation protocols, however the actual concentration present within the Pan-CM was undetermined and may have been quite lower. […] This implies that the benefit due to their presence within the directed differentiation protocol may only be detectable by assaying other pancreatic markers or assaying the directed differentiation cultures at later stages, or as in them being a supportive component in a multi-factorial additive provision, yet unable to operate to induce pancreatic fates when provided alone.
(Real-time PCR tracks product formation cycle by cycle.)

A further data set concerns pluripotent cultures. Kind of data set: Stage 4 administration of individual defined components in directed differentiation, RT-qPCR. Conditions: component added at stage 4, 4 days. From the text:
FIG. 46 (A-B)—Stage 4 administration of defined components. Pluripotent cultures were passaged onto matrigel and maintained in the presence of MEF-conditioned medium for three days before being subjected to a directed differentiation protocol. At the end of stage 3 the individual components of the cell conditioned medium were supplemented into the cultures. After 4 days RNA was extracted from the various cultures and subjected to RT-qPCR analysis for key markers.
We next explored if there were any beneficial effects from inclusion of the individual components of the cell conditioned medium in stage 4 cultures. The individual components were assayed in a directed differentiation protocol for their ability to up regulate markers of the pancreatic truck progenitor state. […] It was noted that both Mfap5 and Nbl1 up regulated the expression of HNF6.

Data set [1] relates to forward differentiating hES culture. Briefly: Two stage protocol: Pan-CM 8 days then second stage medium with MG132, DAPT, forskolin, sodium propionate; transcript analysis. To be noted: compared with MG132. Here is the method:
As a means to optimize the differentiation of insulin producing cells a two stage protocol was used in which pluripotent cultures were incubated in the presence of Pan-CM for 8 days as a means of generating pancreatic precursors cellular population. The medium these cultures were incubated in were subsequently changed to a medium designed to enhance differentiation of a pancreatic precursor towards a beta-cell terminal fate. All second stage experiments were performed in a medium composed of DMEM/F12 containing 12 mM Glucose supplemented with 1% B27, 1% Pyruvate, 1 uM Alk5 Inh II, 500 ng/ml Noggin and 0.5 uM (1,25 OH2)-Vit D3.
Among the compounds assayed for the ability to increase insulin production in a forward differentiating culture was the proteosomal inhibitor MG132 which we used in the previous example to stabilize Ngn3 protein. We also included the gamma secretase inhibitor DAPT, which was shown in the previous example to greatly increase beta-cell formation in the developing embryonic pancreatic explant study. We also included the short fatty acid salt sodium propionate, which acts as an agonist of short-chain fatty acid receptors. We also included the adenylyl cyclase activator forskolin. We also included the nuclear hormone receptor agonist 1,25 (OH)2)-Vit D3, which binds to, and activates the VDR protein. We also used intermediate concentrations of glucose, shown by others to increase formation of insulin producing cells from pluripotent derivatives. These compounds were used individually or in combination (as outlined in FIG. 37 panel A) to increase insulin-producing endocrine cell formation in a short term Pan-CM treated forward differentiating hES culture system.

A further data set deals with Bmp4. Kind of data set: Bmp4 stimulus of pluripotent cells with Nbl1 or Noggin: phospho smad 1/5/8 Western/IHC, ID factor RNA. To be noted: for ID2 and ID4, direct gene targets of Bmp4 signaling / Bmp4 induced phosphorylated smad 1/5/8: 24 hours; for ID2 and ID4, direct gene targets of Bmp4 signaling: RNA analysis; for Bmp4 induced phosphorylated smad 1/5/8: Western blot and IHC. On the procedure: FIG. 42 (A-C)—Nbl1 inhibits BMPs. Pluripotent cells were incubated in the presence of Bmp4 alone or in combination with Nbl1 or Noggin for 24 hours. The following day cultures were assayed for downstream targets of Bmp4 signaling. […] Note the reduced expression of the phosphorylated smads for both Nbl1 and Noggin. […] In addition the down stream activation of AFP was loss in the cultures treated with Nbl1 and Noggin.
Our initial experiment testing the ability of a Pan-CM informed defined medium ability to replicate the direct induction of pancreatic fates relied on the use of Noggin as a BMP inhibitor. This was due to the fact that Nbl1 was not available at the time so a member of the same family of proteins was used. We obtained the NBL1 protein (Sino Biologicals, cat number 10169-H02H) and determined if Nbl1 operates as a Bmp signaling inhibitor. Pluripotent cultures were subjected to a Bmp4 stimulus in the presence and absence of either Noggin or Nbl1. […] This inhibitory effect was also observed by immunohistochemical analysis of the treated cultures and is shown in FIG. 42 panel B. In addition the direct gene targets of Bmp4 signaling, ID2 and ID4, were assayed and shown to be inhibited in the presence of Noggin or Nbl1 (FIG. 42 panel C) as was the downstream target of Afp (panel B).
Background: A western blot detects proteins with antibodies after separation by electrophoresis.

Take Activin A: Activin receptor agonist: the “effect of continued incubation on the cultures” value in the data set with hES cultures (100 ng/ml throughout stage 2 and 3) was “detrimental effect on the cultures”. Also, in the data set with pluripotent cultures, the NKX6.1 expression entry is on record as “positively effected” and the PDX1 expression entry is “significantly up-regulated”.

Consider `CCC(=O)[O-].[Na+]` [sodium propionate], for which, in data set [1], the “effects on pancreas-specific transcript levels” value is listed as “minor in comparison”.

“Cxcl12: CXCR4 agonist, stromal cell derived factor one”: the “Pdx1 relative transcript level over hES levels” value (from here on “Pdx1 relative transcript level”) in the data set on hES cultures is given as “slight increase”. Also, the PDX1 expression result with pluripotent cultures is recorded as “down-regulated”.

B1: Hb-EGF: EGFR agonist (protein, UniProt Q99075 63-148, looked up)
Heparin-binding EGF-like …: DLQEADLDLLRVTLSSKPQALATPNKEEHGKRKKKGKGLGKKRDPCLRKYKDFCIHGECKYVKELRAPSCICHPGYHGERCHGLSL
Consider B1, for which, in the data set on hES cultures, the “FoxA2 relative transcript level over hES levels” value was approximately 125 fold and the “Pdx1 relative transcript level” value is approximately 8500 fold. The PDX1 expression result with pluripotent cultures was “down-regulated”.

B2: FGF10: FGF growth factor (protein, UniProt O15520 38-208, looked up)
Fibroblast growth factor 10: QALGQDMVSPEATNSSSSSFSSPSSAGRHVRSYNHLQGDVRWRKLFSFTKYFLKIEKNGKVSGTKKENCPYSILEITSVEIGVVAVKAINSNYYLAMNKKGKLYGSKEFNNDCKLKERIEENGYNTYASFNWQHNGRQMYVALNGKGAPRRGQKTRRKNTSAHFLPMVVHS
For B2, the “Pdx1 relative transcript level” value with hES cultures was approximately 8500 fold.

B3: Mfap5: non-canonical notch agonist (protein, UniProt Q9QZJ6 29-164, looked up)
Microfibrillar-associated …: QRGDDVPETFTDDPNLVNDPSTDDTALADITPSTDDLAGDKNATAECRDEKFACTRLYSVHRPVRQCVHQSCFTSLRRMYIINNEICSRLVCKEHEAMKDELCRQMAGLPPRRLRRSNYFRLPPCENMNLQRPDGL
On to B3, for which, in the data set with pluripotent cultures, the HNF6 expression result was “up regulated”, the NKX6.1 expression result is reported as “positively effected” and the PDX1 expression entry is on record as “significantly up-regulated”.

B4: Il11: IL11R agonist (protein, UniProt P47873 22-199, looked up)
Interleukin-11: PGPPAGSPRVSSDPRADLDSAVLLTRSLLADTRQLAAQMRDKFPADGDHSLDSLPTLAMSAGTLGSLQLPGVLTRLRVDLMSYLRHVQWLRRAGGPSLKTLEPELGALQARLERLLRRLQLLMSRLALPQAAPDQPVIPLGPPASAWGSIRAAHAILGGLHLTLDWAVRGLLLLKTRL
For the molecule B4, in the data set with hES cultures, the “FoxA2 relative transcript level over hES levels” value was approximately 160 fold and the “Pdx1 relative transcript level” value is “slight increase”. In addition, in the data set on pluripotent cultures, the NKX6.1 expression entry is given as “positively effected” and the PDX1 expression entry is recorded as “significantly up-regulated”.

B5: Nbl1: DAN family protein, NBL1 protein (Sino Biologicals, cat number 10169-H02H) (protein, UniProt P41271 17-181, looked up)
Neuroblastoma suppressor of …: AAPPPINKLALFPDKSAWCEAKNITQIVGHSGCEAKSIQNRACLGQCFSYSVPNTFPQSTESLVHCDSCMPAQSMWEIVTLECPGHEEVPRVDKLVEKILHCSCQACGKEPSHEGLSVYVQGEDGPGSQPGTHPHPHPHPHPGGQTPEPEDPPGAPHTEEEGAED
With B5, in the data set with Bmp4, the “function on Bmp4 signaling” value was “functions as a Bmp4 inhibitor”; the “ID2 and ID4, direct gene targets of Bmp4 signaling” value is given as “inhibited”; the “Bmp4 induced phosphorylated smad 1/5/8” value is recorded as “failed to produce this BMP specific phosphorylation event”. In the data set on pluripotent cultures, the HNF6 expression entry is recorded as “up regulated” and the NKX6.1 expression entry is “positively effected”.

B6: Noggin: BMP inhibitor (protein, UniProt Q13253 28-232, looked up)
Noggin: QHYLHIRPAPSDNLPLVDLIEHPDPIFDPKEKDLNETLLRSLLGGHYDPGFMATSPPEDRPGGGGGAAGGAEDLAELDQLLRQRPSGAMPSEIKGLEFSEGLAQGKKQRLSKKLRRKLQMWLWSQTFCPVLYAWNDLGSRFWPRYVKVGSCFSKRSCSVPEGMVCKPSKSVHLTVLRWRCQRRGGQRCGWIPIQYPIISECKCSC
Take B6: in the data set on Bmp4, the “ID2 and ID4, direct gene targets of Bmp4 signaling” value was “inhibited”; the “Bmp4 induced phosphorylated smad 1/5/8” value is listed as “failed to produce this BMP specific phosphorylation event”.
